# US7803377B2, “Anti-DLL4 antibodies and methods using same” (Genentech, Inc., priority 2006, dated 2010)
# What was measured:
# [1] = molecular target: T1, DLL1 (Homo sapiens, UniProt O00548); test: ELISA binding to coated purified recombinant proteins; conditions: plates coated with recombinant protein 1 μg/ml
# T1 sequence (O00548 18-723): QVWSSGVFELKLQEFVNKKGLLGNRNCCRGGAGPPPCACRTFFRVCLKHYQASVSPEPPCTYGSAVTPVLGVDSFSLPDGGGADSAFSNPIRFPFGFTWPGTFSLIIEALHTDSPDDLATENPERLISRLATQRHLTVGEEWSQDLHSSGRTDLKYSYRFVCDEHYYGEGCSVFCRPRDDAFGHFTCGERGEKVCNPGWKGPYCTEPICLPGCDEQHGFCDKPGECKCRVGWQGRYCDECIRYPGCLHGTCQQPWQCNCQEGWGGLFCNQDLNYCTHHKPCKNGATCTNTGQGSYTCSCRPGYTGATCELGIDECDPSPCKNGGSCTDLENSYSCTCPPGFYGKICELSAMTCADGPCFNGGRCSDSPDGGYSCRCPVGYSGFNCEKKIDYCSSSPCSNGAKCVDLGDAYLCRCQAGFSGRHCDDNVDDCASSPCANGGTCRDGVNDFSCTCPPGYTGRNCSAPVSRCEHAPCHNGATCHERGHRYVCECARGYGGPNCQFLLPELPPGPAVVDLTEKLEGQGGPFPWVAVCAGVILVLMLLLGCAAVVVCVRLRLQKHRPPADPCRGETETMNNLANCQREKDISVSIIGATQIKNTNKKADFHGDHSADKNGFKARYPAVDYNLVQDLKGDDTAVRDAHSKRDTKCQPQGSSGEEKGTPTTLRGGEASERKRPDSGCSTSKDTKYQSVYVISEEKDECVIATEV
# Procedure: (§1) 96-well Nunc Maxisorp plates were coated with purified recombinant proteins as indicated (1 μg/ml). […] Bound antibodies were detected with anti-human antibody HRP conjugate using TMB as substrate and OD 450 nm absorbance measurement. Anti-HER2 and recombinant ErbB2-ECD were used as assay control (FIG. 11b).
# [2] = molecular target: DLL4 (Homo sapiens, UniProt Q9NR61); test: as above; conditions: plates coated with recombinant protein 1 μg/ml
# Procedure: as §1
# [3] = molecular target: Jag1 (Homo sapiens, UniProt P78504); test: as above; conditions: plates coated with recombinant protein 1 μg/ml
# Procedure: as §1
# [4] = molecular target: mouse DLL4 (Mus musculus, UniProt Q9JI71); test: as above; conditions: plates coated with recombinant protein 1 μg/ml
# Procedure: as §1
# [5] = molecular target: T2, full length DLL4 (Homo sapiens, UniProt Q9NR61); test: FACS analysis of transiently transfected 293 cells; type: binding; conditions: DLL4 transfected 293 cells; antibody 2 μg/ml
# T2 construct: transiently transfected with vector, full length DLL4, Jag1 or DLL1; expressed in transfected cells; host or cells: 293 cells, transient
# [6] = test system: retinal vasculature; test: Mouse neonatal retina study; type: in vivo
# Procedure: Mouse neonatal retina study. […] Eyes were collected on P5, and fixed with 4% PFA in PBS overnight. The dissected retinas were blocked with 10% goat serum in PBST for 3 hrs, then incubated overnight with primary antibodies. The primary cocktail included biotinylated isolectin B4 (25 μg/ml, Bandeiraea simplicifolia; Sigma), and one of the following: rabbit anti-mouse Ki67 (1:1, ready-to-use, clone Sp6, Lab Vision), or mouse Cy3-conjugated anti-alpha SMA (1:2000, Sigma-Aldrich), with 10% serum in PBLEC (1% Triton X-100, 0.1 mM CaCl2, 0.1 mM MgCl2, 0.1 mM MnCl2, in PBS pH6.8). Retinas were then washed in PBST, and incubated overnight with secondary antibody combination of Alexa Fluor® 488 streptavidin (1:200; Molecular Probes) and Cy3-anti-rabbit IgG (1:200; Jackson ImmunoResearch). After staining was completed, retinas were post fixed with 4% PFA in PBS. All overnight incubations were done at 4° C. Images of flat mounted retinas were captured by confocal fluorescence microscopy.
# Early postnatal mouse retina develops a stereotypic vascular pattern in a well-defined sequence of events (Stone, J. & Dreher, Z. J Comp Neurol 255, 35-49 (1987); Gerhardt, H. et al. J Cell Biol 161, 1163-77 (2003); Fruttiger, M. Invest Opthalmol Vis Sci 43, 522-7 (2002)). […] Therefore, this hyperproliferative phenotype of retinal ECs upon DLL4 blockade in neonatal mice corroborated the in vitro findings.
# [7] = test system: mouse lymphoma EL4 cells; test: Tumor model EL4; type: in vivo; conditions: 5 mg/kg, IP, twice weekly after establishment of the tumors
# Procedure: Tumor models. Beige nude female mice of 8- to 10-week-old were used. To obtain subcutaneous tumors, mice were injected with 0.1 ml cell suspension containing 50% matrigel (BD Bioscience) into the right posterior flank. 5×10^6 human colon cancer HM7 cells, 10×10^6 human colon carcinoma Colo205 cells, 10×10^6 human lung carcinoma Calu6 cells, 10×10^6 human lung carcinoma MV-522 cells, 10×10^6 mouse leukemia WEHI-3 cells, 10×10^6 mouse lymphoma EL4 cells, 10×10^6 human ovarian cancer SK-OV-3 X1 cells, 10×06 mouse lung cancer LL2 cells, 10×10^6 leukemia/lymphoma EL4 cells, or 10×10^6 non-small lung cancer H1299 cells were injected into each mouse. For human melanoma MDA-MB-435 model, mice were injected into the mammary fat pad with 0.1 ml cell (5×10^6) suspension containing 50% matrigel. […] For the following tumor models, each test mouse received a subcutaneous tumor fragment (1 mm^3) implanted in the right flank: non-small lung cancer SKMES-1, human breast cancer MX-1, human colorectal cancer SW620 and human adenocarcinoma LS174T. The tumor growth was quantitated by caliper measurements. Tumor volume (mm^3) was determined by measuring the length (l) and width (w) and calculating the volume (V=lw2/2). 10 to 15 animals were included in each group. Statistical comparison of treatment groups was performed using two-tailed Student's t-test. […]
# [8] = neonatal CD1 mice, 10 mg/kg i.p. on P1 and P3, eyes collected P5
# [9] = neonatal mice, 10 mg/kg i.p. on P1 and P3
# mouse DLL4, sequence (Q9JI71 27-686): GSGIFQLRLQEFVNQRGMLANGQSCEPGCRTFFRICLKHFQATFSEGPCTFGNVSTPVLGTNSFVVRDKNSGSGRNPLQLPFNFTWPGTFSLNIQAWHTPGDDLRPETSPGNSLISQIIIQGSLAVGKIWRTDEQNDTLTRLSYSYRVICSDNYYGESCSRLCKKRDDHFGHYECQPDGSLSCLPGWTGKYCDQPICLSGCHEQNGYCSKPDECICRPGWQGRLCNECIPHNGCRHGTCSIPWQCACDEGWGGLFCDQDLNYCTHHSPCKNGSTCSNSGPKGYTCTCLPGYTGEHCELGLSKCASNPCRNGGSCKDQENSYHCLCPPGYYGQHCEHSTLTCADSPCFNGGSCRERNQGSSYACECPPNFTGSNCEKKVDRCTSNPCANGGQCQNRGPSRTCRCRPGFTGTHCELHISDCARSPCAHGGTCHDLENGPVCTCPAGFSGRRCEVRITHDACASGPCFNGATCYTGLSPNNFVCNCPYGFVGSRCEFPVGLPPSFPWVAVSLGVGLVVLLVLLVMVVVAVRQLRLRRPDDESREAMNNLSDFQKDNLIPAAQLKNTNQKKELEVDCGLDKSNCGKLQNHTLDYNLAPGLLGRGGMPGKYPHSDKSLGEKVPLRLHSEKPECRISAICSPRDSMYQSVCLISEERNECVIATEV
substance,measurement,setting,value
"YW26.82: affinity matured anti-DLL4 monoclonal antibody; HVR-H1/H2/H3 SEQ ID NO:1, 8, 9; HVR-L1/L2/L3 SEQ ID NO:10, 11, 18",binding by ELISA,[1],did not delectably bind
same,binding by ELISA,[2],bound
same,binding by ELISA,[3],did not delectably bind
same,binding by ELISA,[4],bound
same,binding by FACS,[5],significant binding
same,Ki67 labeling in retinal ECs,[6]; [8],significant increase of Ki67 labeling in ECs
same,accumulation of ECs in neonatal retina,[6]; [8],massive accumulation of ECs
same,anti-α smooth muscle actin (ASMA) staining of retinal arteries,[6]; [9],completely absent
same,pattern of radially alternating arteries and veins in retina,[6]; [9],severely disrupted
same,"tumor growth, single agent",[7],inhibited tumor growth alone
